One molecule from patent publication US8247376B2, “NGAL for reduction and amelioration of ischemic and nephrotoxic injuries” (The Trustees of Columbia University, priority 2004, dated 2012) can be followed below.

“Also recorded” adds a separate entry of the source.

Data set [1] in a line: Cofactor-dependent ^55Fe binding to NGAL (10 kDa filter retention). Here is the method:
The urine fraction was obtained by passing fresh urine sequentially through 10 kDa and 3 kDa membranes (YM-10 and YM-3, Amicon). The mixture was then washed three times on 10 kDa membrane (YM-10, Amicon). Iron-free enterochelin-loaded NGAL (rather than NGAL without siderophore) served as a positive control for iron capture. Ferric citrate (1 mM) or iron-loaded enterochelin (Sid:Fe, 50 μM) were used as competitors of ^55Fe binding.

The subject of a further data set is heme oxygenase-1 (HO-1). Nature of the data set: Heme oxygenase-1 immunoblot of kidney. Type of data set: in vivo, mice. The text has this: (§1) After 6 or 24 hr of reperfusion, heparinized plasma, urine and kidney samples were obtained to measure NGAL (polyclonal 1:500), Heme oxygenase-1 (Stressgen, 1:2000), E-cadherin (BD Transduction Labs, 1:2000), N-cadherin (BD Transduction Labs, 1:3000) and GAPDH (Chemicon International, 1:3000) using immunoblots. Plasma was also used for creatinine and blood urea nitrogen colorimetric assays. Sagittal sections of the kidney were fixed in 4% formalin, or were snap frozen for mRNA and protein analysis. Paraffin-embedded sections (5 μm) were stained with hematoxylin-eosin or by an in situ kit (Fluorescein-TUNEL, Roche) for apoptotic nuclei or for total nuclei (Toprol, Molecular Probes). For cell proliferation analysis, BrdU was injected into the peritoneum 1 hour before sacrifice, and cryostat sections were stained with anti-BrdU (Roche) according to the manufacturer.
(Immunoblotting shows a protein as a band on a membrane.)

A further data set deals with tubule epithelial cells. The experiment in a line: TUNEL apoptosis assay on kidney sections (nuclei per 100 cells). Type of data set: in vivo, mice. Conditions: 24 h reflow. Here is the method:
(§2) Purified endotoxin-free NGAL was administered either intravenously into mice via tail vein injections, subcutaneously, or intraperitoneally. In preliminary studies, animals were treated with three different concentrations of NGAL (50, 100, or 250 μg of a 250 μg/100 solution), subjected to 30 minutes of bilateral renal artery clamping one hour later, and examined after 24 hours of reflow. […] All subsequent studies as reported here were carried out using the 250 μg dose of NGAL. Comparisons were made between five different animal groups: non-ischemic controls (n=8), ischemic controls pre-treated with saline alone (n=8), NGAL pre-treated one hour prior to renal artery clamping (n=6), NGAL treated during renal artery clamping (n=6), and NGAL treated one hour post renal artery clamping (n=6).
For the TUNEL assay to detect apoptotic nuclei, we utilized the ApoAlert DNA Fragmentation Assay Kit (Clontech). Paraffin sections were deparaffinized through zylene and descending grades of ethanol, fixed with 4% formaldehyde/PBS for 30 min at 4° C., permeabilized with proteinase K at room temperature for 15 min and 0.2% triton X-100/PBS for 15 min at 4° C., and incubated with a mixture of nucleotides and TdT enzyme for 60 min at 37° C. The reaction was terminated with 2×SSC, the sections washed with PBS, and mounted with Crystal/mount (Biomeda, Foster City, Calif.). TUNEL-positive apoptotic nuclei were detected by visualization with a fluorescent microscope. […] Merely TUNEL positive cells, in the absence of morphologic criteria, were not considered apoptotic. Slides were examined in a blinded fashion, and apoptosis was quantified by counting the number of TUNEL positive nuclei per 100 cells counted in an average of five high power (40×) fields in each section.

The nature of data set [2]: Uptake of intravenous NGAL into kidney and urine (immunofluorescence, Western blot). Type of data set: in vivo, mice. The settings on record: within one hour of iv injection of 250 μg. Here is the method:
as §2
For NGAL detection, frozen kidney sections were permeabilized with 0.2% Triton X-100 in PBS for 10 min, blocked with goat serum for 1 hr, and incubated with primary antibody to NGAL (1:500 dilution) for 1 hr. Slides were then exposed for 30 min in the dark to secondary antibodies conjugated with Cy5 (Amersham, Arlington Heights, Ill.), and visualized with a fluorescent microscope (Zeiss Axiophot) equipped with rhodamine filters.

The subject of the next data set is cortical tubules. The experiment in a line: BrdU uptake: percent of cortical tubules with BrdU-positive cell. Type of data set: in vivo, mice. Conditions: NGAL pretreated, 24 hours after insult; ischemic 1.9%, sham 3.7%.
Source text: as §1

Data set [3] relates to ischemia-reperfusion injury in mice. The experiment in a line: Serum creatinine 24 h after bilateral renal artery clamping, NGAL intravenous. In kind it is in vivo. As to the method: as §2
Male C57BL/6 mice (20-25 gr; Charles River) were anesthetized with intraperitoneal pentobarbital (50 mg/kg) and placed on a heating pad under a warming light to maintain 37© core body temperature. Kidneys were exposed through an abdominal section and the right kidney was either removed or its vascular pedicle and ureter ligated. The vascular pedicle of the left kidney or both kidneys was clamped by a microaneurysm clip (Kent Scientific) for 30 minutes after right nephrectomy. This period of ischemia generated reproducible renal injury but minimized mortality. During the procedure, PBS (0.5 ml) was used to dampen the peritoneum. The animal was closed with 5-0 Nylon. Saline, NGAL, retinol-loaded retinol binding protein (RBP), enterochelin, or desferroxamine mesylate (DFO) were injected into the peritoneum or subcutaneously 15 min. prior to ischemia or 1-2 hr after reperfusion.
For some studies, the mice were allowed to recover in a warmed cage, and timed urine collections were obtained. […] The mice were killed, the kidneys perfusion fixed in situ with 4% paraformaldehyde in PBS, and both kidneys harvested. One half of each kidney was snap frozen in liquid nitrogen and stored at −70° C. until further processing; a sample was fixed in formalin, paraffin-embedded, and sectioned (4 μm). Paraffin sections were stained with hematoxylin-eosin and examined histologically. The other half of each kidney was embedded in OCT compound (Tissue-Tek) and frozen sections (4 μm) obtained for immunohistochemistry.

Another data set has as its system endogenous NGAL. The experiment in a line: Endogenous NGAL expression after exogenous NGAL (real time PCR, immunoblot). In kind it is in vivo, mice. Further details: reduction of the increase in endogenous NGAL RNA / reduction of endogenous NGAL protein in the kidney: dose or concentration left out as unconfirmed.
Source text: as §1
Total RNA was extracted from mouse kidneys using RNeasy mini kit (Qiagen) with on-column DNase digestion according to the manufacturer's instructions. The cDNA template was synthesized using Omniscript Reverse Transcriptase and oligo-dT primer (Qiagen). The PCR reaction was carried out using iQ SYBR green super mix and MyiQ single-color real-time PCR detection system (Biorad) with incubation times of 2 min at 95° C., followed by 40 cycles of 95° C./30 s and 60° C./30 s. Specificity of the amplification was checked by melting curve analysis and by agarose gel electrophoresis. Primer sequences for mouse NGAL mRNA (Genbank NM_008491) were […] (forward primer, positions 93-112) and […] (reverse, 576-557). Sequences for mouse β-actin mRNA (Genbank X03672) were […] (forward, 415-434) and […] (reverse, 696-677). Each plate included a dilution series of standard sample, which was used to determine mRNA quantities. The NGAL mRNA content was normalized by β-actin mRNA.
Background: Real-time PCR tracks product formation cycle by cycle.

B1: NGAL: Purified endotoxin-free recombinant NGAL expressed as GST fusion protein in bacteria, thrombin cleaved (protein, UniProt P80188 21-198, looked up)
Neutrophil …: QDSTSDLIPAPPLSKVPLQQNFQDNQFQGKWYVVGLAGNAILREDKDPQKMYATIYELKEDKSYNVTSVLFRKKKCDYWIRTFVPGCQPGEFTLGNIKSYPGLTSYLVRVVSTNYNQHAMVFFKKVSQNREYFKITLYGRTKELTSELKENFIRFSKSLGLPENHIVFPVPIDQCIDG
Take B1: the “NGAL molecules that bound iron” value in data set [1] (30 μl of mouse urine) is on record as “approximately 20%”. Besides, in data set [1] (with mouse urine fraction (<3,000 Da), washed on 10 kDa filter), the “retention of ^55Fe” value was “permitted the retention of ^55Fe”. The “upregulation of HO-1 over ATN alone” value in the data set with heme oxygenase-1 (HO-1) (ATN-injured mice, 10-100 μg NGAL, 24 hours after reperfusion) is 5-10 fold. Also, the “expression of HO-1 after NGAL injection” value with heme oxygenase-1 (HO-1) (healthy mice (Sham), increasing doses of NGAL) is recorded as “much less than the NGAL-treated ATN-injured kidneys”. Moreover, the “apoptotic tubule epithelial cells (TUNEL-positive nuclei per hundred cells)” value in the data set with tubule epithelial cells (NGAL during ischemia) is 7.6%±0.8; in the data set on tubule epithelial cells (NGAL one hour after ischemia), 8.5%±0.8; with tubule epithelial cells (NGAL one hour before ischemia, saline 12.6%±2.2), 6.7%±1.6. Besides, the “NGAL in urine by Western blot” value in data set [2] is “detected in the urine within one hour of injection; also recorded: easily detected in the kidney and urine”. The “NGAL in kidney by immunofluorescence” value in data set [2] (ischemic mice) is on record as “easily detected in a punctate cytoplasmic distribution predominantly in the proximal tubules”. In the data set on cortical tubules, the “percent of cortical tubules with at least one BrDU-positive tubular cell” value was 3.9%±0.5. Moreover, in data set [3] (250 μg NGAL one hour before 30 min bilateral renal artery clamping, 24 h reflow, vs saline, doses 50, 100, 250 μg tested), the “protection from the tubular damage and azotemia” value is “significant protection from the tubular damage and azotemia”. Besides, the “serum creatinine at 24 hours of reflow” value is 1.5±0.2 mg/di in data set [3] (NGAL 250 μg iv during ischemia (Dur NGAL)); 1.95±0.2 mg/di in data set [3] (NGAL 250 μg iv one hour after ischemia (Post NGAL)); 1.25 ± 0.3 mg/dL in data set [3] (NGAL 250 μg iv one hour before ischemia (Pre NGAL), saline 2.6±0.28, non-ischemic 0.65±0.13). In the data set on endogenous NGAL (24 hours of reperfusion, real time PCR), the “reduction of the increase in endogenous NGAL RNA” value is 72%±16. Moreover, the “endogenous NGAL protein in the kidney” value in the data set with endogenous NGAL (NGAL-treated ischemia, ischemia 73±7) is 29 ± 7 µg/g. In the data set with endogenous NGAL (immunoblot), the “reduction of endogenous NGAL protein in the kidney” value is on record as 2.5 fold.
